Measured values taken from patent US20160279250, “METHODS FOR STRUCTURAL DETERMINATION OF SELENIUM DERIVATIZED NUCLEIC ACID COMPLEXES” (SeNA Research ,Inc., published 2016).

Biological target: RNase H (D132N, inactive mutant) (Bacillus halodurans, UniProt Q9KEI9 Q9KEI9:59-196, D132N)
Assay: structure; PDB 3TWH, 1.80 A; 5 mM MgCl2, MES pH 6.5, PEG 20000; substrate complex
Conditions: tags: expressed in BL21(DE3) pLysE, 5 bp duplex with one-base overhang at both ends
Method: By using the sitting-drop vapor diffusion method at 25° C., the crystals were readily obtained from a mixture of the crystallization screen [Buffer: 0.1 M MES, pH 6.5; precipitant: 12% (w/v), PEG 20000].
We have synthesized Se-modified DNAs to investigate the DNA/RNA/RNase H complex. […] The complex of RNase H/RNA/Se-DNA (5′-UCGACA-3′/5′-AT-^SeG-TC-^SeGp-3′) was crystallized in a buffer containing 0.1 M MES (pH 6.5) and precipitant (12% w/v, PEG 20000). The crystals were also grown using the sitting drop vapor diffusion method. The crystals appeared within a week and reached their maximum size within a month. Two crystals were used to collect the MAD/SAD data sets. […] After the SAD or MAD dataset is collected from a single crystal, the selenium atoms can be located by direct methods and the phase can be determined similarly to the well-established protein strategy (Elkayam et al., Cell, 150:100-110 (2012); Ferre-D'Amare et al., Nature, 395:567-574 (1998); Hendrickson, Science, 254:51-58 (1991); Hendrickson, Trends Biochem. Sci., 25:637-643 (2000); Schirle and MacRae, Science, 336:1037-1040 (2012); Yang et al., Science 249:1398-1405 (1990)).
The Se-complex structure was finally determined (3TWH; 1.80 Å resolution; FIG. 1) via the selenium anomalous signal and MAD phasing. […] Moreover, the Se-complex structure has been determined by both MAD phasing and molecular replacement. […]

B1: Se-DNA/RNA duplex (DNA-Se, double Se) (DNA:RNA)
DNA: ATGTCG
RNA: UCGACA
modifications: 6-Se-dG at DNA positions 3 and 6; DNA 3'-phosphate
B1: binds.
